Sequences and labels used below:
B1: GpH7-A5/GpH7-B3 variant S298_06M/GpL16-k0 (antibody, human IgG1, kappa)
heavy 1: not shown
heavy 2: not shown
light: DIVMTQSPLSLPVTPGEPASISCQASESLVHSNRNTYLHWYLQKPGQSPQLLIYKVSNRFSGVPDRFSGSGSGTDFTLKISRVEAEDVGVYYCSQNTHVPPTFGQGTKVEIERTVAAPSVFIFPPSDEQLKSGTASVVCLLNNFYPREAKVQWKVDNALQSGNSQESVTEQDSKDSTYSLSSTLTLSKADYEKHKVYACEVTHQGLSSPVTKSFNRGEC
notes: mutation in one H chain only; also called He Ab S298_06M; S298M
B2: GpH7-A5/GpH7-B3 variant S298_18N/GpL16-k0 (antibody, human IgG1, kappa)
heavy 1: not shown
heavy 2: not shown
light: DIVMTQSPLSLPVTPGEPASISCQASESLVHSNRNTYLHWYLQKPGQSPQLLIYKVSNRFSGVPDRFSGSGSGTDFTLKISRVEAEDVGVYYCSQNTHVPPTFGQGTKVEIERTVAAPSVFIFPPSDEQLKSGTASVVCLLNNFYPREAKVQWKVDNALQSGNSQESVTEQDSKDSTYSLSSTLTLSKADYEKHKVYACEVTHQGLSSPVTKSFNRGEC
notes: mutation in one H chain only; also called He Ab S298_18N; S298N
B3: GpH7-A5/GpH7-B3 variant S324_15Y/GpL16-k0 (antibody, human IgG1, kappa)
heavy 1: not shown
heavy 2: not shown
light: DIVMTQSPLSLPVTPGEPASISCQASESLVHSNRNTYLHWYLQKPGQSPQLLIYKVSNRFSGVPDRFSGSGSGTDFTLKISRVEAEDVGVYYCSQNTHVPPTFGQGTKVEIERTVAAPSVFIFPPSDEQLKSGTASVVCLLNNFYPREAKVQWKVDNALQSGNSQESVTEQDSKDSTYSLSSTLTLSKADYEKHKVYACEVTHQGLSSPVTKSFNRGEC
notes: mutation in one H chain only; also called He Ab S324_15Y; S324Y
B4: GpH7-A5/GpH7-B3 variant S324_20W/GpL16-k0 (antibody, human IgG1, kappa)
heavy 1: not shown
heavy 2: not shown
light: DIVMTQSPLSLPVTPGEPASISCQASESLVHSNRNTYLHWYLQKPGQSPQLLIYKVSNRFSGVPDRFSGSGSGTDFTLKISRVEAEDVGVYYCSQNTHVPPTFGQGTKVEIERTVAAPSVFIFPPSDEQLKSGTASVVCLLNNFYPREAKVQWKVDNALQSGNSQESVTEQDSKDSTYSLSSTLTLSKADYEKHKVYACEVTHQGLSSPVTKSFNRGEC
notes: mutation in one H chain only; also called He Ab S324_20W; S324W
B5: GpH7-A5/GpH7-B3 variant S298_07I/GpL16-k0 (antibody, human IgG1, kappa)
heavy 1: not shown
heavy 2: not shown
light: DIVMTQSPLSLPVTPGEPASISCQASESLVHSNRNTYLHWYLQKPGQSPQLLIYKVSNRFSGVPDRFSGSGSGTDFTLKISRVEAEDVGVYYCSQNTHVPPTFGQGTKVEIERTVAAPSVFIFPPSDEQLKSGTASVVCLLNNFYPREAKVQWKVDNALQSGNSQESVTEQDSKDSTYSLSSTLTLSKADYEKHKVYACEVTHQGLSSPVTKSFNRGEC
notes: mutation in one H chain only; also called He Ab S298_07I; S298I
B6: GpH7-A5/GpH7-B3 variant S324_03V/GpL16-k0 (antibody, human IgG1, kappa)
heavy 1: not shown
heavy 2: not shown
light: DIVMTQSPLSLPVTPGEPASISCQASESLVHSNRNTYLHWYLQKPGQSPQLLIYKVSNRFSGVPDRFSGSGSGTDFTLKISRVEAEDVGVYYCSQNTHVPPTFGQGTKVEIERTVAAPSVFIFPPSDEQLKSGTASVVCLLNNFYPREAKVQWKVDNALQSGNSQESVTEQDSKDSTYSLSSTLTLSKADYEKHKVYACEVTHQGLSSPVTKSFNRGEC
notes: mutation in one H chain only; also called He Ab S324_03V; S324V
B7: GpH7-A5/GpH7-B3 variant S298_20W/GpL16-k0 (antibody, human IgG1, kappa)
heavy 1: not shown
heavy 2: not shown
light: DIVMTQSPLSLPVTPGEPASISCQASESLVHSNRNTYLHWYLQKPGQSPQLLIYKVSNRFSGVPDRFSGSGSGTDFTLKISRVEAEDVGVYYCSQNTHVPPTFGQGTKVEIERTVAAPSVFIFPPSDEQLKSGTASVVCLLNNFYPREAKVQWKVDNALQSGNSQESVTEQDSKDSTYSLSSTLTLSKADYEKHKVYACEVTHQGLSSPVTKSFNRGEC
notes: mutation in one H chain only; also called He Ab S298_20W; S298W
B8: GpH7-A5/GpH7-B3 variant S324_18N/GpL16-k0 (antibody, human IgG1, kappa)
heavy 1: not shown
heavy 2: not shown
light: DIVMTQSPLSLPVTPGEPASISCQASESLVHSNRNTYLHWYLQKPGQSPQLLIYKVSNRFSGVPDRFSGSGSGTDFTLKISRVEAEDVGVYYCSQNTHVPPTFGQGTKVEIERTVAAPSVFIFPPSDEQLKSGTASVVCLLNNFYPREAKVQWKVDNALQSGNSQESVTEQDSKDSTYSLSSTLTLSKADYEKHKVYACEVTHQGLSSPVTKSFNRGEC
notes: mutation in one H chain only; also called He Ab S324_18N; S324N
B9: GpH7-A5/GpH7-B3 variant S324_19Q/GpL16-k0 (antibody, human IgG1, kappa)
heavy 1: not shown
heavy 2: not shown
light: DIVMTQSPLSLPVTPGEPASISCQASESLVHSNRNTYLHWYLQKPGQSPQLLIYKVSNRFSGVPDRFSGSGSGTDFTLKISRVEAEDVGVYYCSQNTHVPPTFGQGTKVEIERTVAAPSVFIFPPSDEQLKSGTASVVCLLNNFYPREAKVQWKVDNALQSGNSQESVTEQDSKDSTYSLSSTLTLSKADYEKHKVYACEVTHQGLSSPVTKSFNRGEC
notes: mutation in one H chain only; also called He Ab S324_19Q; S324Q
B10: GpH7-A5/GpH7-B3 variant S324_14T/GpL16-k0 (antibody, human IgG1, kappa)
heavy 1: not shown
heavy 2: not shown
light: DIVMTQSPLSLPVTPGEPASISCQASESLVHSNRNTYLHWYLQKPGQSPQLLIYKVSNRFSGVPDRFSGSGSGTDFTLKISRVEAEDVGVYYCSQNTHVPPTFGQGTKVEIERTVAAPSVFIFPPSDEQLKSGTASVVCLLNNFYPREAKVQWKVDNALQSGNSQESVTEQDSKDSTYSLSSTLTLSKADYEKHKVYACEVTHQGLSSPVTKSFNRGEC
notes: mutation in one H chain only; also called He Ab S324_14T; S324T
B11: GpH7-A5/GpH7-B3 variant S298_14T/GpL16-k0 (antibody, human IgG1, kappa)
heavy 1: not shown
heavy 2: not shown
light: DIVMTQSPLSLPVTPGEPASISCQASESLVHSNRNTYLHWYLQKPGQSPQLLIYKVSNRFSGVPDRFSGSGSGTDFTLKISRVEAEDVGVYYCSQNTHVPPTFGQGTKVEIERTVAAPSVFIFPPSDEQLKSGTASVVCLLNNFYPREAKVQWKVDNALQSGNSQESVTEQDSKDSTYSLSSTLTLSKADYEKHKVYACEVTHQGLSSPVTKSFNRGEC
notes: mutation in one H chain only; also called He Ab S298_14T; S298T

The target of the assay is T1, FcγRIa extracellular domain with C-terminal His tag (human, UniProt P12314 16-292).
T1 construct: extracellular domain; also called FcgRI; CD64; not shown: His tag at the C terminus
T1 sequence (P12314 16-292): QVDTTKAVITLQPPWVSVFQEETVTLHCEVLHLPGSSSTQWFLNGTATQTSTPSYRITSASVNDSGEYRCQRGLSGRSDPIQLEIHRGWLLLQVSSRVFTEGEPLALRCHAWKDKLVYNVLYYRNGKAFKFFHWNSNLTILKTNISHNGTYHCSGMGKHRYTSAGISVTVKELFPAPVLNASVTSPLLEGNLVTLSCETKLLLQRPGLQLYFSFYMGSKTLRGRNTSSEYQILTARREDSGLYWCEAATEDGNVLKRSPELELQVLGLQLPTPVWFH
Put plainly: SPR Biacore, relative FcγRIa binding vs GpH7-A5/GpH7-B3/GpL16-k0. (In general: SPR reads the build-up and loss of mass on a sensor chip optically.)
As for B1, the He/Con_1a is 114 % of HeCon Ab (=100).

Consider B2, for which the He/Con_1a was 108 % of HeCon Ab (=100).

B3: the He/Con_1a was 114 % of HeCon Ab (=100).

As for B4, the He/Con_1a is 114 % of HeCon Ab (=100).

As to B5, the He/Con_1a was 107 % of HeCon Ab (=100).

Consider B6, for which the He/Con_1a was 104 % of HeCon Ab (=100).

With B7, the He/Con_1a is 104 % of HeCon Ab (=100).

B8: the He/Con_1a was 116 % of HeCon Ab (=100).

For the molecule B9, the He/Con_1a is 112 % of HeCon Ab (=100).

For B10, the He/Con_1a was 121 % of HeCon Ab (=100).

Take B11: the He/Con_1a is 107 % of HeCon Ab (=100).

Source of the values: patent US20180155451A1 (published 2018).
